Test results reported in patent US20200407467.

Assays:
[1] = target: T1, ANAPC1 peptide 1-90 (human library), Q9H1A4
T1 chain: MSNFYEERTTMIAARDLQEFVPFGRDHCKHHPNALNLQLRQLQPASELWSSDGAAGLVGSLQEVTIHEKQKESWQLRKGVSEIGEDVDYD

[2] = target: T2, BSN peptide 631-720 (human library), Q9UPA5
T2 chain: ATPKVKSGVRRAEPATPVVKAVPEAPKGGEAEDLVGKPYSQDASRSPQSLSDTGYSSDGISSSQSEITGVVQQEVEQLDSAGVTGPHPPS

[3] = target: T3, C14orf93 peptide 91-180 (human library), Q9H972
T3 chain: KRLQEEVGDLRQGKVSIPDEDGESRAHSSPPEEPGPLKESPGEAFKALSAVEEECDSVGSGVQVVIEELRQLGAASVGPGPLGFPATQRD

[4] = target: T4, ERO1L peptide 91-180 (human library), Q96HE7
T4 chain: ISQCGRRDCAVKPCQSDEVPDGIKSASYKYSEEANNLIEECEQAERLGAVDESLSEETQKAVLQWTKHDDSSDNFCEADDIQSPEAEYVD

[5] = target: T5, Efs peptide 181-270 (human library), O43281
T5 chain: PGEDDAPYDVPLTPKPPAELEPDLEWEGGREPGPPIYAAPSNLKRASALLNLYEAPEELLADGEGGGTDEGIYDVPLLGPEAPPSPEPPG

[6] = target: T6, GSDMD peptide 222-278 (mouse library)
T6 chain: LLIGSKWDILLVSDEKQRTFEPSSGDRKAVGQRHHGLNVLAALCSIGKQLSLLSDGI

[7] = target: T7, GSDMD peptide 259-315 (mouse library)
T7 chain: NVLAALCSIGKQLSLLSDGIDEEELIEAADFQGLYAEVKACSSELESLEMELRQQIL

[8] = target: Gasdermin-D (peptides of the human library)
[9] = target: HECT, UBA and WWE Domain Containing E3 Ubiquitin Protein Ligase 1 (HUWE1), endogenous in THP-1 cells, Q7Z6Z7
[10] = target: T8, HMGXB4 peptide 226-315 (human library), Q9UGU5
T8 chain: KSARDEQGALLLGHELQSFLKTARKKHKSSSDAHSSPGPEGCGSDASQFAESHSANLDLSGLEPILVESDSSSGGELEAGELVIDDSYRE

[11] = target: T9, HUWE1 peptide 2251-2340 (human library), Q7Z6Z7
T9 chain: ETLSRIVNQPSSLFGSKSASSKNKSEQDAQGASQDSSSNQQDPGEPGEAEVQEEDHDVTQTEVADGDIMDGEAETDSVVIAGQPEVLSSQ

[12] = target: T10, HUWE1 peptide 2291-2347 (mouse library), Q7TMY8
T10 chain: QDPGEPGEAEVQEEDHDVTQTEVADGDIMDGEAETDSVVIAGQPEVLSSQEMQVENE

[13] = target: T11, HUWE1 peptide 2296-2485 (human library), Q7Z6Z7
T11 chain: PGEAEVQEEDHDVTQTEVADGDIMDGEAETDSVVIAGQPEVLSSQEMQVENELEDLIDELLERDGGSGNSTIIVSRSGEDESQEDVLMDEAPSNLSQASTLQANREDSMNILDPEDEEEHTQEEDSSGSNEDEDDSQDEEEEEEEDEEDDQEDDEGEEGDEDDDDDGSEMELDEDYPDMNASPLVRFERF

[14] = target: T12, HUWE1 peptide 2328-2384 (mouse library), Q7TMY8
T12 chain: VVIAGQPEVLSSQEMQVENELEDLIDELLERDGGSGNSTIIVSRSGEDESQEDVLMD

[15] = target: T13, HUWE1 peptide 2341-2430 (human library), Q7Z6Z7
T13 chain: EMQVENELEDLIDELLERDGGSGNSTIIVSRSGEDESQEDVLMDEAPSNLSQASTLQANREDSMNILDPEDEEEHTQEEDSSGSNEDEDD

[16] = target: T14, Hmcn2 peptide 1576-1665 (human library), Q8NDA2
T14 chain: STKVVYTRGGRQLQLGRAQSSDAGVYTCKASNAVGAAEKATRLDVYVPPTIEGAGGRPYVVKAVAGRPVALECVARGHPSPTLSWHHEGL

[17] = target: T15, Hyls1 peptide 1-90 (human library), Q96M11
T15 chain: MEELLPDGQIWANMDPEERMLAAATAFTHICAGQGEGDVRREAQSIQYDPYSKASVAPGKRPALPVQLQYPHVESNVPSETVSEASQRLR

[18] = target: T16, IL1B peptide 0-56 (mouse library)
T16 chain: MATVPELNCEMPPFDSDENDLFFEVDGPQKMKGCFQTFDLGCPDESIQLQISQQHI

[19] = target: T17, IL1B peptide 74-130 (mouse library)
T17 chain: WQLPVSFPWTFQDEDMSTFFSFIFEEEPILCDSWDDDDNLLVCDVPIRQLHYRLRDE

[20] = target: T18, IL1B peptide 75-131 (mouse library)
T18 chain: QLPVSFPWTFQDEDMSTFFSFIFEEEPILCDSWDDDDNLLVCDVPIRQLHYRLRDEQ

[21] = target: LOC100287737 peptide 496-585 (human library)
[22] = target: T19, LYST peptide 1171-1260 (human library), Q99698
T19 chain: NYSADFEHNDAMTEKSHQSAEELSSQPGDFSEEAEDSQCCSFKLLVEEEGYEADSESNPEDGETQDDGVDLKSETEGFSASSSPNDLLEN

[23] = target: MAP3K14 peptide 496-585 (human library), Q99558
[24] = target: T7-SEPARATE PreScission-cleavable clone, monovalent display (T7Select1-2b)
[25] = target: T20, TNS3 peptide 451-540 (human library), Q68CZ2
T20 chain: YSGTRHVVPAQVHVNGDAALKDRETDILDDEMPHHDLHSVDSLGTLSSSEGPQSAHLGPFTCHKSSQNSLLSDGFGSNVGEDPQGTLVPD

[26] = target: T21, UHRF1BP1L peptide 991-1080 (human library), A0JNW5
T21 chain: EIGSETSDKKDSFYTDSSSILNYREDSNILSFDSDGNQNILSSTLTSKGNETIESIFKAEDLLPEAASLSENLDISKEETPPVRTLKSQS

[27] = target: T22, ZNF469 peptide 811-900 (human library), Q96JG9
T22 chain: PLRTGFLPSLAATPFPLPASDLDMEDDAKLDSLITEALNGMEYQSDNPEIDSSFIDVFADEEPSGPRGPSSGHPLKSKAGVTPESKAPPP

[28] = target: T23, Znf462 peptide 1-90 (human library), Q96JM2
T23 chain: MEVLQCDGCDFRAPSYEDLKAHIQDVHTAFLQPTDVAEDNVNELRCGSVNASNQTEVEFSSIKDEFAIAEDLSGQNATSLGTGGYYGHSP

[29] = target: T24, hoxa2 peptide 271-360 (human library), O43364
T24 chain: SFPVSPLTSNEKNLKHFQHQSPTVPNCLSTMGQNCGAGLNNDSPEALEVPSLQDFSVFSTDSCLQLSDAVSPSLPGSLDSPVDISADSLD

[30] = target: unmapped_NM peptide 91-180 (human library)

B1: Caspase-1 (recombinant) (protein)
chain: NPAMPTSSGSEGNVKLCSLEEAQRIWKQKSAEIYPIMDKSSRTRLALIICNEEFDSIPRRTGAEVDITGMTMLLQNLGYSVDVKKNLTASDMTTELEAFAHRPEHKTSDSTFLVFMSHGIREGICGKKHSEQVPDILQLNAIFNMLNTKNCPSLKDKPKVIIIQACRGDSPGVVWFKDSVGVSGNLSLPTTEEFEDDAIKKAHIEKDFIAFCSSTPDNVSWRHPTMGSVFIGRLIEHMQEYACSCDVEEIFRKVRFSFEQPDGRAQMPTTERVTLTRCFYLFPGH
Caspase1 fold change [1]: 16.4 fold | Caspase1 fold change [2]: 18.8 fold | Caspase1 fold change [3]: 18.2 fold | Caspase1 fold change [4]: 19.8 fold | Caspase1 fold change [5]: 21.1 fold | Caspase1 fold change [6]: 4.23 fold | Caspase1 fold change [7]: 6.78 fold | enrichment in SEPARATE (human library digest) [8]: did not score in the assay | Western blot, cleavage of endogenous HUWE1 in THP-1 lysate [9]: robust cleavage of endogenous HUWE1 | Caspase1 fold change [10]: 16.5 fold | Caspase1 fold change [11]: 17.6 fold | Caspase1 fold change [12]: 6.13 fold | Caspase1 fold change [13]: 22.7 fold | Caspase1 fold change [14]: 23.1 fold | Caspase1 fold change [15]: 16.6 fold | Caspase1 fold change [16]: 16.3 fold | Caspase1 fold change [17]: 19.7 fold | Caspase1 fold change [18]: 8.1 fold | Caspase1 fold change [19]: 13.2 fold | Caspase1 fold change [20]: 8.8 fold | Caspase1 fold change [21]: 16.4 fold | Caspase1 fold change [22]: 21 fold | Caspase1 fold change [23]: 16.5 fold | enrichment of the PreScission digestible clone spiked into the human library [24]: no enrichment is observed when digested with Caspase-1 | Caspase1 fold change [25]: 18.7 fold | Caspase1 fold change [26]: 16.4 fold | Caspase1 fold change [27]: 16.8 fold | Caspase1 fold change [28]: 19.1 fold | Caspase1 fold change [29]: 17.1 fold | Caspase1 fold change [30]: 18.7 fold
